We go through eight molecules from patent publication US20250341513A1, “Bordetella T Cells Epitopes, Megapools and Uses Thereof” (LA JOLLA INSTITUTE FOR IMMUNOLOGY, priority 2022, published 2025).

This experiment relates to CD4+ T cells. Briefly: BP genome-wide peptide library screening by ex vivo AIM assay; epitope and antigen (ORF) reactivity and donor recognition. Type of experiment: cell-based, human. The following applies: for frequency of donor recognition: entire cohort (n=40); for magnitude, % of total response: sum of reactivity of individual epitopes per ORF/antigen across entire cohort (n=40), FIG. 3; for % of Donor response / % of Total magnitude: immunodominant antigens (ORFs); for % of Donor response: frequency of donors recognising the antigen; for % of Total magnitude: share of total CD4+ T cell response magnitude in the genome-wide screen.

Take filamentous hemagglutinin [FHA]: the “frequency of donor recognition” value is given as 45.0 % of donors and the “magnitude, % of total response” value is 2.12 % of total response.

B1: Membrane protein insertase YidC (protein, UniProt P65622 1-563, looked up)
Membrane protein insertase …: MDIRRTVLWMIFSFSLLLLWNNWQIHNGKPSLFGGPAPEAAATQQPKADANGTAASSTASIPSSPAAAPAAASVPGAAAPAAAKSEQVVITTDVLRLTFDSNGAQLIRAELLKYPSSSQSDKPTVLMDRSADLVYVAQTGVVGAPQGESFPTHQTPFHLVSSERSLTGDTLDVVFEAESGGLKVTKTYTLHRGRYDVDVRHAMANTGGAPLNPALYLQLERDGTDPAGTSSFYHTFTGVAVYSEQDKFQKVTFSDIEKKKGTYIKQADNGWIGIVQHYFATAWIPAQGKQRTNELLQVQQNLYAARTIEAVGTIAPGSSANVDAHLWVGPQDQKAMAAVAPGLELVVDYGWLTIIAKPLFTLMTWLHGLLGNWGWTIVALTVIIKAVFFPLAAASYRSMARMKQVAPRLQALKEKYGDDRQKLNQAMMEMYRTEKINPLGGCLPMVVQIPVFIALYWVLLASVEMRGAPWILWVHDLSVRDPFFILPAIMMATMFLQIKLNPTPPDPVQAKVMMIMPLVFGGMMFFFPAGLVLYWCVNNTLSIAQQWTITRNLERQAAAAANR
Take B1: the “% of Donor response” value was 17.5% and the “% of Total magnitude” value amounted to 1.35%.

B2: pertactin (protein, UniProt P14283 35-910, looked up)
Pertactin autotransporter: DWNNQSIVKTGERQHGIHIQGSDPGGVRTASGTTIKVSGRQAQGILLENPAAELQFRNGSVTSSGQLSDDGIRRFLGTVTVKAGKLVADHATLANVGDTWDDDGIALYVAGEQAQASIADSTLQGAGGVQIERGANVTVQRSAIVDGGLHIGALQSLQPEDLPPSRVVLRDTNVTAVPASGAPAAVSVLGASELTLDGGHITGGRAAGVAAMQGAVVHLQRATIRRGDAPAGGAVPGGAVPGGAVPGGFGPGGFGPVLDGWYGVDVSGSSVELAQSIVEAPELGAAIRVGRGARVTVSGGSLSAPHGNVIETGGARRFAPQAAPLSITLQAGAHAQGKALLYRVLPEPVKLTLTGGADAQGDIVATELPSIPGTSIGPLDVALASQARWTGATRAVDSLSIDNATWVMTDNSNVGALRLASDGSVDFQQPAEAGRFKVLTVNTLAGSGLFRMNVFADLGLSDKLVVMQDASGQHRLWVRNSGSEPASANTLLLVQTPLGSAATFTLANKDGKVDIGTYRYRLAANGNGQWSLVGAKAPPAPKPAPQPGPQPPQPPQPQPEAPAPQPPAGRELSAAANAAVNTGGVGLASTLWYAESNALSKRLGELRLNPDAGGAWGRGFAQRQQLDNRAGRRFDQKVAGFELGADHAVAVAGGRWHLGGLAGYTRGDRGFTGDGGGHTDSVHVGGYATYIADSGFYLDATLRASRLENDFKVAGSDGYAVKGKYRTHGVGASLEAGRRFTHADGWFLEPQAELAVFRAGGGAYRAANGLRVRDEGGSSVLGRLGLEVGKRIELAGGRQVQPYIKASVLQEFDGAGTVHTNGIAHRTELRGTRAELGLGMAAALGRGHSLYASYEYSKGPKLAMPWTFHAGYRYSW
notes: aP vaccine antigen of B. pertussis
On to B2, for which the “frequency of donor recognition” value is recorded as 40 % of donors and the “magnitude, % of total response” value was 1.33 % of total response.

B3: S-adenosylmethionine--tRNA ribosyltransferase-isomerase QueA (protein, UniProt Q7VZ81 1-347, looked up)
S-adenosylmethionine:tRNA …: MPTPLTLADFDYHLPPELIAQSPAAERGGSRLLHLDAASRLHDRRFPDLAGLLRPHDLLVFNDTRVIKARLTGQKATGGKVEVLVERITAPDRALAHVRASKSPGPGMRLRLAEAFEAEVLGREGELFDLRFPAPVLDLLDAHGATPLPPYITHAADATDERRYQTVYAREPGAVAAPTAGLHFDQPMLEQLAAQGVQRAFVTLHVGAGTFQPVRVQNLAEHIMHAEWYTVPEATVAAIARARAHGGRIVAVGTTSVRALESAAAQAQDGPLAAAQGDTRLFITPGYRYRAVDALLTNFHLPQSTLLMLVSALAGVEPIRRAYAHAVAERYRFFSYGDAMFIETPAP
As to B3, the “% of Donor response” value is 17.5% and the “% of Total magnitude” value is given as 0.27%.

B4: Fim 2: fimbrial protein 2, aP vaccine antigen (protein, UniProt P05788 27-207, looked up)
Serotype 2 fimbrial subunit: DDGTIVITGTITDTTCVIEDPSGPNHTKVVQLPKISKNALKANGDQAGRTPFIIKLKDCPSSLGNGVKAYFEPGPTTDYSTGDLRAYKMVYATNPQTQLSNITAATEAQGVQVRISNLNDSKITMGANEATQQAAGFDPEVQTGGTSRTVTMRYLASYVKKNGDVEASAITTYVGFSVVYP
Take B4: the “frequency of donor recognition” value was 5 % of donors and the “magnitude, % of total response” value was 0.09 % of total response.

B5: BrkA autotransporter (protein, UniProt Q45340 43-1010, looked up)
BrkA autotransporter: QAPQPPVAGAPHAQDAGQEGEFDHRDNTLIAVFDDGVGINLDDDPDELGETAPPTLKDIHISVEHKNPMSKPAIGVRVSGAGRALTLAGSTIDATEGGIPAVVRRGGTLELDGVTVAGGEGMEPMTVSDAGSRLSVRGGVLGGEAPGVGLVRAAQGGQASIIDATLQSILGPALIADGGSISVAGGSIDMDMGPGFPPPPPPLPGAPLAAHPPLDRVAAVHAGQDGKVTLREVALRAHGPQATGVYAYMPGSEITLQGGTVSVQGDDGAGVVAGAGLLDALPPGGTVRLDGTTVSTDGANTDAVLVRGDAARAEVVNTVLRTAKSLAAGVSAQHGGRVTLRQTRIETAGAGAEGISVLGFEPQSGSGPASVDMQGGSITTTGNRAAGIALTHGSARLEGVAVRAEGSGSSAAQLANGTLVVSAGSLASAQSGAISVTDTPLKLMPGALASSTVSVRLTDGATAQGGNGVFLQQHSTIPVAVALESGALARGDIVADGNKPLDAGISLSVASGAAWHGATQVLQSATLGKGGTWVVNADSRVQDMSMRGGRVEFQAPAPEASYKTLTLQTLDGNGVFVLNTNVAAGQNDQLRVTGRADGQHRVLVRNAGGEADSRGARLGLVHTQGQGNATFRLANVGKAVDLGTWRYSLAEDPKTHVWSLQRAGQALSGAANAAVNAADLSSIALAESNALDKRLGELRLRADAGGPWARTFSERQQISNRHARAYDQTVSGLEIGLDRGWSASGGRWYAGGLLGYTYADRTYPGDGGGKVKGLHVGGYAAYVGDGGYYLDTVLRLGRYDQQYNIAGTDGGRVTADYRTSGAAWSLEGGRRFELPNDWFAEPQAEVMLWRTSGKRYRASNGLRVKVDANTATLGRLGLRFGRRIALAGGNIVQPYARLGWTQEFKSTGDVRTNGIGHAGAGRHGRVELGAGVDAALGKGHNLYASYEYAAGDRINIPWSFHAGYRYSF
As for B5, the “% of Donor response” value is recorded as 20% and the “% of Total magnitude” value turned out to be 0.44%.

B6: Fim 3: fimbrial protein 3, aP vaccine antigen (protein, UniProt P17835 26-204, looked up)
Serotype 3 fimbrial subunit: NDGTIVITGSISDQTCVIEEPSTLNHIKVVQLPKISKNALRNDGDTAGATPFDIKLKECPQALGALKLYFEPGITTNYDTGDLIAYKQTYNASGNGNLSTVSSATKAKGVEFRLANLNGQHIRMGTDKTTQAAQTFTGKVTNGSKSYTLRYLASYVKKPKEDVDAAQITSYVGFSVVYP
As for B6, the “frequency of donor recognition” value is given as 12.5 % of donors and the “magnitude, % of total response” value is on record as 0.24 % of total response.

B7: Virulence sensor protein BvgS (protein, UniProt P16575 33-1238, looked up)
Virulence sensor protein BvgS: SQELTLVGKAAVPDVEVALDGDDWRWLARKRVLTLGVYAPDIPPFDVTYGERYEGLTADYMAIIAHNLGMQAKVLRYPTREQALSALESGQIDLIGTVNGTDGRQQSLRLSVPYAADHPVIVMPIGARHVPASNLAGQRLAVDINYLPKETLARAYPQATLHYFPSSEQALAAVAYGQADVFIGDALTTSHLVSQSYFNDVRVVAPAHIATGGESFGVRADNTRLLRVVNAVLEAIPPSEHRSLIYRWGLGSSISLDFAHPAYSAREQQWMADHPVVKVAVLNLFAPFTLFRTDEQFGGISAAVLQLLQLRTGLDFEIIGVDTVEELIAKLRSGEADMAGALFVNSARESFLSFSRPYVRNGMVIVTRQDPDAPVDADHLDGRTVALVRNSAAIPLLQRRYPQAKVVTADNPSEAMLMVANGQADAVVQTQISASYYVNRYFAGKLRIASALDLPPAEIALATTRGQTELMSILNKALYSISNDELASIISRWRGSDGDPRTWYAYRNEIYLLIGLGLLSALLFLSWIVYLRRQIRQRKRAERALNDQLEFMRVLIDGTPNPIYVRDKEGRMLLCNDAYLDTFGVTADAVLGKTIPEANVVGDPALAREMHEFLLTRVAAEREPRFEDRDVTLHGRTRHVYQWTIPYGDSLGELKGIIGGWIDITERAELLRKLHDAKESADAANRAKTTFLATMSHEIRTPMNAIIGMLELALLRPTDQEPDRQSIQVAYDSARSLLELIGDILDIAKIEAGKFDLAPVRTALRVLPEGAIRVFDGLARQKGIELVLKTDIVGVDDVLIDPLRMKQVLSNLVGNAIKFTTEGQVVLAVTARPDGDAAHVQFSVSDTGCGISEADQRQLFKPFSQVGGSAEAGPAPGTGLGLSISRRLVELMGGTLVMRSAPGVGTTVSVDLRLTMVEKSVQAAPPAAATAATPSKPQVSLRVLVVDDHKPNLMLLRQQLDYLGQRVIAADSGEAALALWREHAFDVVITDCNMPGISGYELARRIRAAEAAPGYGRTRCILFGFTASAQMDEAQRCRAAGMDDCLFKPIGVDALRQRLNEAVARAALPTPPSPQAAAPATDDATPTAFSAESILALTQNDEALIRQLLEEVIRTNRADVDQLQKLHQQADWPKVSDMAHRLAGGARVVDAKAMIDTVLALEKKAQGQAGPSPEIDGLVRTLAAQSAALETQLRAWLEQRPHQDQP
Turning to B7, the “% of Donor response” value is recorded as 15% and the “% of Total magnitude” value is reported as 0.76%.
